According to the RNAGym collection of RNA variant scans (doi:10.7554/elife.80360):

B1: Hairpin Ribozyme (parent)
chain: GUCCUCUUUCACGUGCGCGUGAAAGAGAGAAGUGAACCAGAGAAACACACGUUGUGGUAUAUUACCUGGUA

Variants of: B1
Assay: self-cleavage, relative activity (ratio to wild type); higher = more cleavage; co-transcriptional

Variant	self-cleavage
C3U G57C	0.094
U58G U62A	0.232
C16G C48U	0.154
G29C U55A	0.164
A36C G51U	0.678
A11C G56A	0.15
C12U U14C	1.05
A30G G68A	0.0362
G17C A22G	0.552
U62A G69A	0.176
C18G A24U	0.729
U20A G68U	0.297
C37U C66U	0.264
G19U G54A	0.468
G1A C65U	0.0307
C48A U67C	0.137
C48G U58A	0.105
A11G G42U	0.314
U53G G57A	0.178
U8C C38G	0.154
G57U U63G	0.291
C3U G34U	1.17
C38G U60G	0.146
G13C G15U	0.695

Variant	self-cleavage
C10G C12G	0.477
G25U G57C	0.163
C4G A41C	0.236
C6A A24C	0.445
C38G A44G	0.335
G21A U60A	0.804
G51U U52G	0.648
U14G G54C	0.315
U55C C66A	0.13
U7G A11G	0.734
G32A A43U	0.0753
G51C U70G	0.704
G27U G54A	0.26
G27U G54C	0.133
A45C U58A	0.309
A36U C38U	0.112
A41G U70G	0.677
C10U C16U	0.871
U14G U58G	0.464
A41G A47C	0.189
C46G C65U	0.107
A30G A59G	0.311
G29C G54U	0.162
U8C G21C	0.114

Variant	self-cleavage
U9G A47C	0.406
C50U G56U	0.121
U8A A23U	0.911
U9C A28C	0.394
C3G G19C	0.229
C16A U20C	0.956
C12G U67G	0.215
G40U A59C	0.0879
A47C A59G	0.0267
A31U U63C	0.247
G19U	0.891
C4U G69A	0.12
A11C U58C	1.16
U55A A71C	0.697
G13C U53A	0.747
A30U U70G	0.117
A39U A41G	0.644
G15C G68A	0.324
A31G C48U	0.257
A30C G51A	0.26
G21U U33C	0.192
C16A U62A	0.199
U20A G34C	1.26
A24C A39U	0.573

Variant	self-cleavage
A49U G54A	0.477
U9C C38G	0.145
U5G U14A	0.204
A44U U53G	0.159
G42C A61G	0.178
A59U C65U	0.13
A47U U55C	0.203
A11U U53A	0.679
G19A G27U	0.237
U9C A43G	0.0922
G25A G29A	0.204
A41C C66A	0.214
U2G G42U	0.0398
C12A U58C	0.686
G19U C50A	0.329
U60A U70G	0.553
A11G A28G	1.11
G1U C12G	0.171
G1C G54A	0.141
G51U U53C	0.777
A31G U70C	0.751
U2C G54A	0.134
A22C A71G	0.945
G40C C66A	0.105

Variant	self-cleavage
A44U A59C	0.173
G32C C66G	0.114
C4U A22G	0.236
G1A A30G	0.231
A35C U53G	0.403
U33A U55G	0.0798
U9G U14A	0.612
G13A U60C	1.25
C12U A28G	1.19
U9C U33A	0.0961
G21U A30C	0.232
A45G A61G	0.169
A11G G32C	0.0578
C10G C48U	0.168
G17U G21C	0.661
U5G G15U	0.431
A59U U70G	0.159
U14A C65G	0.323
A28U U55A	0.235
C50U U58G	0.262
C37U A39G	0.269
G15U A23U	0.918
A61U U62G	0.0473
G21U G69A	0.374

Variant	self-cleavage
A24G G57C	0.118
G42U A71C	0.6
U7G G54C	0.41
C12U C18G	0.832
G27A G32U	0.0607
U7C C48A	0.114
A24G A28U	0.475
U20G U53A	0.927
U9C U20A	0.692
C46A G57C	0.156
A30C A47G	0.0558
U9A G34A	0.905
G19C A23C	0.696
C3G C37A	0.162
C38U G56A	0.106
C38U G56U	0.14
C6A G25U	0.763
C6A G25C	0.64
G1A A31G	0.136
A43C	0.141
U14G A31U	0.119
U9A G42C	0.187
A39C A49U	0.12
G17C U20A	0.736

Variant	self-cleavage
U9G A11C	0.416
A30C G34C	0.79
A23U	0.852
A30C A71U	0.104
U9C G32A	0.125
G13A U53A	0.856
A49G U58A	0.217
C3A G21C	0.489
A36G U60C	1.1
U8G G19C	0.36
G69C A71G	0.316
C50U U55C	0.615
G25C A47G	0.071
G13U A44U	0.147
G51U U67A	0.236
A23C C38A	0.161
G29C C37A	0.14
A49U U53A	0.139
A44G U63A	0.207
A43G U63G	0.11
A59G U70C	0.192
A45G U52A	0.0852
G40U U60C	0.148
C4A A11C	0.353

Variant	self-cleavage
C10G A47G	0.177
G1A U9C	0.167
G15C G56A	0.129
A26G C66A	0.171
C37U C46U	0.198
C4U C12G	0.259
U63C A64U	0.185
G15C A45U	0.191
C66U G69U	0.187
U14G C46U	0.21
C10A C37A	0.271
C12U G17U	0.69
U2G G68A	0.166
A47C U55C	0.233
C6A G51C	0.531
G25A U58G	0.496
U14A G68C	0.25
G19A A35C	0.987
U20A C50U	0.5
C38U A41G	0.648
U52G A59G	0.25
C12G A28U	0.57
C12G A28C	0.561
U9G C65A	0.609

Variant	self-cleavage
C12A C65U	0.309
G27C G40A	0.0679
U14A A23G	0.814
G13C C65A	0.726
G40A C66U	0.832
U7A U20A	0.723
U9C A47U	0.178
G1C A71U	0.153
C4G G13U	0.21
C16G G54C	0.393
U52A G57C	0.0886
G56U A61C	0.134
C4A U5G	0.109
U8C U9A	0.266
C4A C37U	0.16
A45U G51A	0.075
C3U A61G	0.117
G13C C48G	0.102
U2C A61G	0.0293
C4A A26G	0.17
G19C U58G	0.705
C38G C50A	0.162
A23G C46G	0.245
C37U A49C	0.0924

Variant	self-cleavage
C16U C66U	0.397
A49C A64G	0.0856
A36C C46U	0.15
G42A U55C	0.103
G42A U55G	0.249
C10G G19U	0.507
C18U G57A	0.188
A47C A64U	0.218
A39U U53A	0.233
U9A A47C	0.205
A39C U52C	0.56
U9A U70A	0.581
G34U G68C	0.686
G40C U55A	0.107
G34U C65G	1.35
C38G A43U	0.154
U33C U60C	0.128
G56C U60C	0.156
G27A A45C	0.186
U20G A22U	0.868
U2C C4U	0.0249
U67G G68C	0.177
U8A G17C	0.63
U9G G27U	0.171

Variant	self-cleavage
A23G G54C	0.363
A28U A49G	0.365
G1A G40A	0.199
A41G G69C	0.534
A41C G54C	0.676
G54C U63G	0.119
U9C C65A	0.945
A26C U58C	0.771
A30C C38A	0.183
G15A C18G	0.886
U20A A43G	0.348
C6U A49C	0.0449
U60A A71C	1.24
G29A G51A	0.138
G13U A64G	0.533
G19A G69A	0.347
A36U U58A	0.386
G57C G69U	0.0905
G32A A45C	0.277
G1U A35U	0.126
U7G A23C	0.624
G1U C16U	0.0937
U20G U55C	0.268
U9C U52G	0.74

Variant	self-cleavage
G19C A31G	0.524
U14G A64G	0.407
A64C A71C	0.28
G32U A39C	0.116
C46G G51A	0.154
U33G U60C	0.195
G1U U5C	0
U5C A28G	0.358
U60A C65A	0.807
G1A U60A	0.188
C4G U62A	0.191
A22C G25U	0.17
U52A G56A	0.256
C6G G15A	0.475
C3U U8C	0.253
U9C G15U	0.879
A11C A64U	0.237
G69A A71U	0.152
A11U A41G	0.495
G29A C48U	0.0646
A24U A71G	1.11
U8A C37G	0.241
C3U A30G	0.104
C12U U55C	0.218

Variant	self-cleavage
G32U A41G	0.0256
A41U U52C	1.11
G17C U62G	0.216
A39U C46U	0.114
C6A C37G	0.287
G40U G56U	0.111
G17A U60G	0.581
A36C C66U	0.264
G21C G25A	0.165
U60A U67C	0.155
G29U G68A	0.097
A23C U53C	0.702
U14G G42A	0.163
A31U A36U	0.121
C4U G34U	1.12
A41G A44G	0.249
G25A A28U	0.585
U9G G13A	0.536
C12A G56C	0.0797
C6A U7A	0.648
C50A C65G	0.0746
C3A C10G	0.631
G29A A31U	0.178
G25A A61U	0.0154

Variant	self-cleavage
U2A A49U	0.0799
G1U G69C	0.0943
G19C A49C	0.0455
A35G U60C	0.917
A23G G51A	0.781
A11C A31C	0.116
A26G G27U	0.121
G42A A59G	0.264
U33A A39C	0.105
U14A U52A	1.03
A26U G57U	0.143
C65G C66U	0.429
U58G U67C	0.0792
G15C G40C	0.125
C4A C65G	0.179
C48G U62G	0.107
U9A G17U	0.65
C46G G54A	0.134
C37A U55G	0.0701
C4A A23G	0.209
A26G A61G	0.161
G54U U63G	0.159
